The values below come from US20100280227A1 (Genentech, published 2010).

Assay [1] has as its target T1, mouse FcγRII extracellular domain, His-tagged GST fusion (mouse, UniProt P08101 30-210).
T1 construct: extracellular domain; also called Mouse II
T1 sequence (looked up): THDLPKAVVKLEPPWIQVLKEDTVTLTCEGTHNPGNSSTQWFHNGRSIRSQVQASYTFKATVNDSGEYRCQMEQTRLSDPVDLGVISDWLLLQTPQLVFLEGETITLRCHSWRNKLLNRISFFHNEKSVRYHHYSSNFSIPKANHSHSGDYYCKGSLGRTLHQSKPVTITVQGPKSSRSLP
Put plainly: ELISA, captured FcgR-GST; EC50herceptin/EC50sample. (ELISA stands for enzyme-linked immunosorbent assay.)

The target in assay [2] is T2, human FcγRIIa extracellular domain, His-tagged GST fusion (human, UniProt P12318 34-217).
T2 construct: extracellular domain; also called hFcgRIIa; Human IIa
T2 sequence (looked up): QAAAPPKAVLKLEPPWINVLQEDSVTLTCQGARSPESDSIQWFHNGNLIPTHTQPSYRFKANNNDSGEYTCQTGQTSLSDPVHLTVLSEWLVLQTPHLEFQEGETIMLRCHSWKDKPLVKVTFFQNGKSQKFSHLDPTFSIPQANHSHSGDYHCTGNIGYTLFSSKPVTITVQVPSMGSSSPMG
Put plainly: ELISA, captured FcgR-GST; EC50herceptin/EC50sample.

Assay [3] deals with T3, human FcγRIIb extracellular domain, His-tagged GST fusion (human, UniProt P31994 43-217).
T3 construct: extracellular domain; also called hFcgRIIb; Human IIb
T3 sequence (looked up): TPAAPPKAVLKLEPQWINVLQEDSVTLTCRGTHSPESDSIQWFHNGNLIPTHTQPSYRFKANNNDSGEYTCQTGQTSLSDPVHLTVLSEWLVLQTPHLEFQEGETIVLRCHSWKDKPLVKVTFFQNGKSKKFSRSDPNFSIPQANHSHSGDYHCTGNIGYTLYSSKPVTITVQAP
Put plainly: ELISA, captured FcgR-GST; EC50herceptin/EC50sample.

The target in assay [4] is T4, mouse FcγRI extracellular domain, His-tagged GST fusion (mouse, UniProt P26151 25-297).
T4 construct: extracellular domain; also called Mouse I
T4 sequence (looked up): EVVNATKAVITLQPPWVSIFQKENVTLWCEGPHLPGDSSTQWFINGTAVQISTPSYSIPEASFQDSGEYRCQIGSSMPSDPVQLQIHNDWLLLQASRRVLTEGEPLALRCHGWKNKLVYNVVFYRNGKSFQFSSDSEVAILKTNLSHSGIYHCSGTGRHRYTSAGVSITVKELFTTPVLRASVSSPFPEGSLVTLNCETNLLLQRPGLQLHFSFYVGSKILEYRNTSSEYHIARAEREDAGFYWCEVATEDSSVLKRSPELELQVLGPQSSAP
Put plainly: ELISA, captured FcgR-GST; EC50herceptin/EC50sample.

Assay [5] deals with T5, mouse FcγRIII extracellular domain, His-tagged GST fusion (mouse, UniProt P08508 31-215).
T5 construct: extracellular domain; also called Mouse III
T5 sequence (looked up): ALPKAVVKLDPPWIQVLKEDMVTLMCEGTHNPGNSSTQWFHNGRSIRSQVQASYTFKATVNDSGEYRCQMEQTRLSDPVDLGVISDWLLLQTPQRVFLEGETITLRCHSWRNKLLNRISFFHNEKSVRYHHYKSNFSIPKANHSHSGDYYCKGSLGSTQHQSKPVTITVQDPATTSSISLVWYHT
Put plainly: ELISA, captured FcgR-GST; EC50herceptin/EC50sample.

Assay [6] has as its target T6, human FcγRI extracellular domain, His-tagged GST fusion (human, UniProt P12314 16-292).
T6 construct: extracellular domain; also called hFcgRI; Human I
Kind of assay: ELISA, captured FcgR-GST; EC50herceptin/EC50sample.

Assay [7] concerns the target T7, human BR3 expressed on cells (human, UniProt Q96RJ3 1-184). Put plainly: cell-based or functional assay.
The target in assay [8] is T2, human FcγRIIa extracellular domain, …. Put plainly: ELISA, receptor-His-GST captured by anti-GST, IgG complexed with anti-kappa F(ab')2.
Assay [9] has as its target T7, human BR3 expressed on cells. Put plainly: BJAB cells, direct binding.
Assay [10] addresses T8, human FcRn (human, UniProt P55899 24-297; P61769 21-119, limits assumed).
T8 construct: construct not described; also called huFcRn
Kind of assay: SPR, FcRn on chip, kinetic, pH 6.

For assay [11], the target named is T9, cynomolgus FcRn (cynomolgus monkey, UniProt Q8SPV9 24-297; Q8SPW0 21-119, limits assumed).
T9 construct: construct not described; also called cynoFcRn; cyno FcRn
Kind of assay: SPR, FcRn on chip, kinetic, pH 6. In general terms: Surface plasmon resonance follows binding to a sensor surface in real time, without labels.

Assay [12] concerns the target T8, human FcRn. Kind of assay: SPR, FcRn on chip, kinetic, pH 6.0 (KDa).
The target in assay [13] is T9, cynomolgus FcRn. Kind of assay: SPR, FcRn on chip, kinetic, pH 6.0 (KDa).
The target in assay [14] is T2, human FcγRIIa extracellular domain, …. Put plainly: ELISA, captured FcgR-GST; A450 ratio to 9.1RF.
For assay [15], the target named is T3, human FcγRIIb extracellular domain, …. Kind of assay: ELISA, captured FcgR-GST; A450 ratio to 9.1RF.
Assay [16] concerns the target T6, human FcγRI extracellular domain, …. Kind of assay: ELISA, captured FcgR-GST; A450 ratio to 9.1RF.
The target is the same in assay [17]. Kind of assay: ELISA, receptor-His-GST captured by anti-GST, uncomplexed IgG.
In assay [18] the target is T8, human FcRn. Kind of assay: SPR, FcRn on chip, equilibrium, pH 6.0 (KDb).
Assay [19] addresses T9, cynomolgus FcRn. Kind of assay: SPR, FcRn on chip, equilibrium, pH 6.0 (KDb).
The target in assay [20] is T10, human BR3 extracellular domain (human, UniProt Q96RJ3 1-61).
T10 construct: biotinylated where used as tracer; also called hBR3-ECD; BR3-ECD
Put plainly: SPR, IgG on chip, BR3 ECD in solution.

Assay [21] concerns the target T7, human BR3 expressed on cells. Kind of assay: BJAB cells, competition with biotin-BAFF.

Numbering of substitutions follows the chain as printed. In names and notes the source's numbering stands. Some results are limits rather than exact numbers.

B1: 9.1RF S298A/E333A/K334A IgG (antibody)
light: DIQMTQSPSSLSASVGDRVTITCKSSQSLLYSSNQNNYLAWYQQKPGKAPKLLIYWASTRESGVPSRFSGSGSGTDFTLTISSLQPEDFATYYCQQYYTYPYTFGQGTKVEIKRTVAAPSVFIFPPSDEQLKSGTASVVCLLNNFYPREAKVQWKVDNALQSGNSQESVTEQDSKDSTYSLSSTLTLSKADYEKHKVYACEVTHQGLSSPVTKSFNRGEC
heavy: EVQLVESGGGLVQPGGSLRLSCAASGFTVTAYYMSWVRQAPGKGLEWVGFIRDKANGYTTEYNPSVKGRFTISRDTSKNTFYLQMNSLRAEDTAVYYCAQVRRALDYWGQGTLVTVSSASTKGPSVFPLAPSSKSTSGGTAALGCLVKDYFPEPVTVSWNSGALTSGVHTFPAVLQSSGLYSLSSVVTVPSSSLGTQTYICNVNHKPSNTKVDKKVEPKSCDKTHTCPPCPAPELLGGPSVFLFPPKPKDTLMISRTPEVTCVVVDVSHEDPEVKFNWYVDGVEVHNAKTKPREEQYNATYRVVSVLTVLHQDWLNGKEYKCKVSNKALPAPIAATISKAKGQPREPQVYTLPPSREEMTKNQVSLTCLVKGFYPSDIAVEWESNGQPENNYKTTPPVLDSDGSFFLYSKLTVDKSRWQQGNVFSCSVMHEALHNHYTQKSLSLSPG
notes: Fc variant of 9.1RF, transient CHO expression; copies: 2 + 2
As for B1, the “fold improvement in binding vs Herceptin” value was 0.4 fold in [1]; 0.2 fold in assay [2]; 0.4 fold in assay [3]; 2.5 fold in assay [4]; 0.6 fold in [5]; 0.7 fold in [6]. Moreover, the “ADCC activity relative to 9.1wt (relative EC50 values)” value in assay [7] stood at 2.8 fold. In assay [7], the “ADCC on BJAB cells (LDH release), EC50” value was below 1 nM.

B2: 9.1RF IgG antibody (antibody)
light: B1 light
heavy: not shown
notes: produced in CHO cells; also called h9.1-RF; Hu9.1-RF-IgG; copies: 2 + 2
Take B2: the figures for the “EC50 (read off the curve)” value in assay [8] and in assay [17] were around 1000 ng/mL and around 6 ng/mL, respectively. This molecule also had an EC50 in [9] of 0.46 nM. Moreover, the results for the koff in assay [10], in [11] and in assay [20] were 0.0784 s⁻¹, 0.192 s⁻¹ and 0.000309 s⁻¹, respectively. Further, the kon stood at 635000 M⁻¹ s⁻¹ in [10], 1.01e+06 M⁻¹ s⁻¹ in assay [11] and 1.8e+06 M⁻¹ s⁻¹ in assay [20]. Also, the Kd in [12] was determined as 123 nM; in assay [13], 191 nM; in [18], 118 nM; in assay [19], 186 nM; in assay [20], 0.169 nM. The “binding relative to 9.1RF” value in assay [14], in [15] and in assay [16] was 1 ratio in each case. Moreover, the “fold improvement in binding vs Herceptin” value is 0.7 fold in assay [1]; 2.3 fold in [2]; 0.7 fold in [3]; 1.2 fold in assay [4]; 0.8 fold in [5]; 1 fold in [6]. Also, the IC50 in assay [21] was 0.68 nM.

B3: 9.1RF S298A/K326A/E333A/K334A IgG (antibody)
light: B1 light
heavy: B1 heavy with K327A
notes: as for B1
On to B3, for which the “fold improvement in binding vs Herceptin” value in assay [1] turned out to be 1.3 fold; in assay [2], 0.2 fold; in assay [3], 0.7 fold; in [4], 1.9 fold; in assay [5] it was 1.2 fold; in assay [6] it was 0.6 fold. Also, the “ADCC activity relative to 9.1wt (relative EC50 values)” value in assay [7] is 3 fold. Besides, in assay [7], the “ADCC on BJAB cells (LDH release), EC50” value is below 1 nM.

As a reminder, the EC50 (read off the curve) is the concentration that produces a half-maximal response. Read a low EC50 (read off the curve) as greater potency. The EC50 is the concentration giving half of the maximal effect. Low values mean a more potent agent, high ones a less potent agent. As a reminder, the koff is the first-order rate constant of dissociation. The low end stands for a long-lived complex, the high end for a short-lived complex. One may read the kon as the rate constant with which the complex forms. Read a low kon as slow association. What is called Kd is a measure of binding affinity in units of concentration. A low value points to a tighter complex. A word on the IC50: it is the point on the concentration scale where inhibition reaches its midpoint. A lower IC50 goes with inhibition by little substance.
